Test results: US20140322233A1 (Takeda / Millennium, published 2014)
Changes are numbered by the printed parent chain.

B1: mAb 8F1 (antibody, IgG1, V domains shown)
VH: QVQLQQPGAELVKPGASVQMSCKASGYIFTGYWMYWVKQRPGQGLEWIGRIHPSDSNTNYNQKFKGKATLTVDKSSSTAYMQLSSLTSEDSAVYYCTHALAYWGQGTLVTVS
VL: DVVLTQTPLTLSITIGQPASISCKSSQSLLYSNGKTYLSWLLQRPGQSPKRLIYLVSQLDSGVPDRFTGSGSGTDFTLKISRVEAEDLGVYYCVQGTHLFTFGSGTKLEIK
B2: mAb Abx-221 (antibody, V domains shown)
VH: EVQLLESGGGLVQPGGSLRLSCAASGFTFSRYAMNWVRQAPGKGLEWVSGISGSGGSTYYADSVKGRFTISRDNSKNTLYLQMNSLRAEDTAVYYCAKDRDFWSGPFDYWGQGTLVTVSS
VL: EIVMTPSSATLSVSPGERATLSCRASQSVSRSLAWYQQKPGQAPRLLIYGASTRATGIPARFSGSGSGTEFTLTISSLQSEDVAVYYCQQYNNWMCSFGQGTKLEIK
B3: mAb Abx-229 (antibody, V domains shown)
VH: B2 VH with S57R
VL: B2 VL with S32N, V83F, Q89H, N92S
B4: mAb Abx-106 (antibody, IgG1, V domains shown)
VH: QVQLQESGPGLVKPSETLSLTCTVSGASISHYYWSWIRQPAGKGLEWIGRIYISGRTSYNPSLKSRVTVSVDTSKNQFSLKLSSVTAADTAVYYCARDRLTGYFDYWGQGTLVTVSS
VL: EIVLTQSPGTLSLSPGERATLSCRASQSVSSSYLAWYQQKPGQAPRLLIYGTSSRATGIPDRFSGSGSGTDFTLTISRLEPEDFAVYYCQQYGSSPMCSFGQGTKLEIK
B5: mAb Abx-012 (antibody, IgG1, V domains shown)
VH: B4 VH
VL: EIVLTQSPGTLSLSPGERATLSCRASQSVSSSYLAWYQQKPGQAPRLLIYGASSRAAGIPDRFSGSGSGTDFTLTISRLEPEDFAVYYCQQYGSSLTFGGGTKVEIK
notes: also called Abx-12
B6: mAb Abx-020 (antibody, IgG1, V domains shown)
VH: QVQLVESGGGLVKPGGSLRLSCAASGFTFSDYYMSWIRQAPGKGLEWISYITSSGSTIYYSASVKGRFTISRDNAKNSLYLQMNSLRAEDTAVYYCARDFSGWFGVHFDYWGQGTLVTVSS
VL: DIVMTQTPLSLSVTPGQPASISCKSSQSLLHSDGKTYLYWYLQKPGQPPQLLIYEVSNRFSGVPNRFSGSGSGTDFTLKISRVEAEDVGVYYCMQSIQLTWTFGQGTKVEIK
B7: mAb 10D3 (antibody, V domains shown)
VH: QVQLQQWGAGLLKPSETLSLTCAVFGGSFSGYYWSWIRQPPGKGLEWIGEINHRGNTNDNPSLKSRVTISVDTSKNQFALKLSSVTAADTAVYYCARERGYTYGNFDHWGQGTLVTVSS
VL: EIVLTQSPGTLSLSPGERATLSCRASQSVSSRYLAWYQQKPGQAPRLLIYGASSRATGTPDRFSGSGSGTDFTLTISRLEPEDFAVYFCQQYERSFTFGPGTKVD
B8: mAb 6H8 (antibody, IgG2, V domains shown)
VH: QVQLVESGGGVVQPGRSLRLSCAASGFTFSSYGMHWVRQAPGKGLEWVAAIWYDGSNKYYADSVKGRFTISRDNSKNTLYLQMNSLRAEDTAVYYCARGRSSSYFDYWGQGTLVTVSS
VL: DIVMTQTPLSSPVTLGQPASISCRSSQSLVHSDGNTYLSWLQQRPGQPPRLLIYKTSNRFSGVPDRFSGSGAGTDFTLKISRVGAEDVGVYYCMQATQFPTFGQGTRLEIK
B9: mAb 8C2 (antibody, IgG2, V domains shown)
VH: B8 VH with A23V, A49G, D62A, Y94F
VL: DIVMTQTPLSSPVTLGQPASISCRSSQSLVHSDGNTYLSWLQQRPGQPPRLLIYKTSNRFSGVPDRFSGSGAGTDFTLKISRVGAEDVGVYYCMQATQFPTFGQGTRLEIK
B10: mAb 10C10 (antibody, IgG2, V domains shown)
VH: B8 VH
VL: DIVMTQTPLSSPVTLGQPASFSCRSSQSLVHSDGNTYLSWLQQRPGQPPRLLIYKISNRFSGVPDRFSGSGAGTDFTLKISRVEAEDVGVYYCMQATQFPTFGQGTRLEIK
B11: mAb Abx-393 (antibody, IgG1, V domains shown)
VH: QVQLQESGPGLVKPSETLSLTCTVSGGSIRHYYWSWIRQPPGKGLEWIGYIYYSGSTNYNLSLKSRVTISRDTSKNQVSLKLSSVTAADTAVYYCAAGMGFDYWGQGTLVTVSS
VL: DIQMTQSPSSLSASIGDRVTITCRASQAIRNDLGWYQLKPGKAPKRLIYSASSLQSGVPSRFSGSGSGTEFTLTISSLQPEDSATYYCLQHNSFPPTFGQGTKVEIK
B12: mAb Abx-198 (antibody, IgG1, V domains shown)
VH: EVQLLESGGGLVQPGGSLRLSCAASGFTFSSYAMSWVRQAPGKGLDWVSDISGSGGSTYYADSVKGRFTISRDNSKNTLYLQMHSLSAEDTAIYYCAKRRWQGYFDLWGRGTLVTVSS
VL: EIVLTQSPGTLSLSPGERATLSCRARQRVDSRYLAWYQQKPGQAPRLLIYGASSRATGIPDRFSGSGSGTDFTLTISRLEPEDFAVYYCQQYGSSPLTFGGGTKVEIK
B13: 5F9-vc-MMAE (antibody, V domains shown)
VH: B7 VH
VL: EIVMTQSPATLSVSPGERATLSCRASQSVSRNLAWYQQKPGQAPRLLIYGASTRATGIPARFSGSGSGTEFTLTIGSLQSEDFAVYYCQQYKTWPRTFGQGTNVEIK
modifications: mc-vc-MMAE drug-linker on reduced interchain cysteines of the antibody; positions not given
notes: Antibody drug conjugate of 5F9
B14: 5F9-vc-MMAF (antibody, V domains shown)
VH: B7 VH
VL: B13 VL
modifications: mc-vc-MMAF drug-linker on reduced interchain cysteines of the antibody; positions not given
notes: Antibody drug conjugate of 5F9; average loading about four
B15: 5F9-mc-MMAF (antibody, V domains shown)
VH: B7 VH
VL: B13 VL
modifications: mc-MMAF drug-linker on reduced interchain cysteines of the antibody; positions not given
notes: as for B14

molecular target: T1, human guanylyl cyclase C (GCC), full length (human, UniProt P25092 24-1073); experiment: FACS, HT-29#2 cells (full length GCC transfected)
T1 construct: Full length GCC on transfected HT-29 (clones #2, #5, #18) and CT26 (#2.5, #32) cells and endogenous GCC on T84 cells; also called hGCC; STAR
T1 sequence (P25092 24-1073 limits assumed): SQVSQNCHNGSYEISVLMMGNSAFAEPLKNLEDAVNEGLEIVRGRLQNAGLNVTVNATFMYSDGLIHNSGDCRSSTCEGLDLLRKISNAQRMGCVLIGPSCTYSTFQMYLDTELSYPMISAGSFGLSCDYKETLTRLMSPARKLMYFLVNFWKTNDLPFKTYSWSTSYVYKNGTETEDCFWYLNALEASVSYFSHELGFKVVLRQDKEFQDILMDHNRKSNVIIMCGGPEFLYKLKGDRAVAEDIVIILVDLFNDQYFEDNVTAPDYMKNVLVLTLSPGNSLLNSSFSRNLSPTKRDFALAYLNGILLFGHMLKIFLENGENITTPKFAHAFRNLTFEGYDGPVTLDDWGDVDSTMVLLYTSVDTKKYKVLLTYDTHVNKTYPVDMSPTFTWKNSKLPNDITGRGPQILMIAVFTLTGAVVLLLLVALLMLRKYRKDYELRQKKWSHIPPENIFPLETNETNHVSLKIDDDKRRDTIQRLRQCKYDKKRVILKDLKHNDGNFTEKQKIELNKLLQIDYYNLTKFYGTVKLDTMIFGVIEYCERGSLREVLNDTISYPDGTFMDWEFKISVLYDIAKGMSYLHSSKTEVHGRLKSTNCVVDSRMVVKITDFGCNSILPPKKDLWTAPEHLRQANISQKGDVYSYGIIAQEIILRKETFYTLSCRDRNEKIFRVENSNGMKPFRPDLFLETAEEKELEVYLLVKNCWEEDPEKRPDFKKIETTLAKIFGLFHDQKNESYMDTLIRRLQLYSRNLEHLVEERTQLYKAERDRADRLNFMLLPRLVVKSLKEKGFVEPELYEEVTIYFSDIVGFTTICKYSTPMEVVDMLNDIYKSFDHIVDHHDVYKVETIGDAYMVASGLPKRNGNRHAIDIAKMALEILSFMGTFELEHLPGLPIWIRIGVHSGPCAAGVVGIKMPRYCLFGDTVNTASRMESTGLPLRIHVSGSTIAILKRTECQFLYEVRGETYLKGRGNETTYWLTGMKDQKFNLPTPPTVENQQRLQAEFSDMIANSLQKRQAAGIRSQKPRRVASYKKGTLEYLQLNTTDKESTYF

B1: binds.

molecular target: T2, human GCC, full length with myc tag (293-GCC#2 cells) (human, UniProt P25092 24-1073); experiment: cell-based or functional assay
T2 sequence (P25092 24-1073): as the sequence (P25092 24-1073 limits assumed) above

First: B2
Second: B3
The “LD50, indirect cytotoxicity with DM1-conjugated mouse anti-human IgG, 293-GCC#2 cells, WST after 4 days” value (“LD50, indirect cytotoxicity” below) of the first is 2.7-fold higher: 207 pM for the first, 78 pM for the second.

First: B4
Second: B5
The “LD50, indirect cytotoxicity” value of the first is 1.7-fold lower: 166 pM for the first, 279 pM for the second.

Going from B6 to B7, the “LD50, indirect cytotoxicity” value rises from 569 pM to 1600 pM (2.8-fold).

Going from B8 to B9, the “LD50, indirect cytotoxicity” value falls from over 4820 pM to 2040 pM.

First: B10
Second: B11
The “LD50, indirect cytotoxicity” value of the first is lower: 2440 pM for the first, over 5400 pM for the second.

B12 was tested, and the “LD50, indirect cytotoxicity” value was over 5400 pM.

molecular target: T3, TOK107-hIg (human); experiment: ELISA against TOK107-hIg
T3 construct: Expressed in HEK293 cells; Fc mutated at the CH1 cysteine and at lysine 235 and glycine 237 to alanine; also called hGCC-ECD/hIgG1 Fc; TOK107-hIgG
T3 sequence (chain, as listed by the source limits assumed): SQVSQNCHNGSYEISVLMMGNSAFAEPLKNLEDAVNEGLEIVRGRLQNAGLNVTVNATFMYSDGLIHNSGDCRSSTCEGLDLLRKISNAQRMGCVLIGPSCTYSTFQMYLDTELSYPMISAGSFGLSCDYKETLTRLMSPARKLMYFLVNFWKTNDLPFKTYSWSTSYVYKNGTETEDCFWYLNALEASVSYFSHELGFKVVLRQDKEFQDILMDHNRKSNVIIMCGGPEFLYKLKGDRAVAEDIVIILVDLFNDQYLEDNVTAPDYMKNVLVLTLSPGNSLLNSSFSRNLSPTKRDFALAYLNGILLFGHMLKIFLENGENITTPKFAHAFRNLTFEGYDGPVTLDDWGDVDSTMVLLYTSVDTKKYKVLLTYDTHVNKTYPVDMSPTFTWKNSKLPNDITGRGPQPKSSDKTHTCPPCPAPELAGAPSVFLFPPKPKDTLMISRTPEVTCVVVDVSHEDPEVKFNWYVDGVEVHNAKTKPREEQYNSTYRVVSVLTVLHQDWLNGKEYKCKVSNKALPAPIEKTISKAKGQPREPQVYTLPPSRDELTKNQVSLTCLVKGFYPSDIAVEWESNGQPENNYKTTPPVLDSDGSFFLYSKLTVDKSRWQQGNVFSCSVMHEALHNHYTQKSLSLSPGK

First: B2
Second: B3
The EC50 of the first is 4.5-fold lower: 6.55 nM for the first, 29.5 nM for the second.

Compared with B5, B6 is 8.3-fold higher in EC50: 0.555 nM for the first, 4.58 nM for the second. The first is the more potent here.

B12 gave an EC50 of 47.7 nM.

molecular target: T1, human guanylyl cyclase C (GCC), full …; experiment: cell-based or functional assay

B13 and B14 cannot be ordered by “LD50, direct cytotoxicity, CT 26 GCC #2.5 cells” value: over 500 nM for the first, over 10 nM for the second.

B15 was tested, and the “LD50, direct cytotoxicity, CT 26 GCC #2.5 cells” value was over 10 nM.

First: B13
Second: B14
The “LD50, direct cytotoxicity, CT 26 GCC #32 cells” value of the first is 67000-fold higher: 267 nM for the first, 0.004 nM for the second.

B15 was tested, and the “LD50, direct cytotoxicity, CT 26 GCC #32 cells” value was 0.064 nM.

Compared with B13, B14 is 190-fold lower in “LD50, direct cytotoxicity, HT 29 GCC #2 cells” value: 24.1 nM for the first, 0.127 nM for the second.

For B15, the “LD50, direct cytotoxicity, HT 29 GCC #2 cells” value was 3.1 nM.

B13 and B14 are within 1.5-fold of each other in “LD50, direct cytotoxicity, HT 29 GCC #5 cells” value: 654 nM for the first, 563 nM for the second.

B15 was tested, and the “LD50, direct cytotoxicity, HT 29 GCC #5 cells” value was over 10000 nM.

Compared with B13, B14 is higher in “LD50, direct cytotoxicity, HT 29 GCC #18 cells” value: 0.555 µM for the first, over 10 µM for the second.

For B15, the “LD50, direct cytotoxicity, HT 29 GCC #18 cells” value was over 10 µM.

Compared with B13, B15 is higher in “LD50, direct cytotoxicity, HT29 GCC#5 cells” value: 0.59 nM for the first, over 10 nM for the second.

molecular target: T3, TOK107-hIg; experiment: ELISA on coated TOK107-hIg

B4: binds.
B7: binds.
B8: binds.
B9: binds.
B11: binds.
B1: binds.

molecular target: T2, human GCC, full length with myc tag …; experiment: indirect immunofluorescence flow cytometry, 293 GCC #2 cells;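 note: cells exposed to the test antibodies for 1 h on ice before flow cytometric readout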

Going from B13 to B14, the “MFI at 0.001 µg/ml” value falls from 445 to 440.

In the case of B15, the “MFI at 0.001 µg/ml” value is reported as 483.

First: B13
Second: B14
The “MFI at 0.004 µg/ml” value of the first is lower: 696 for the first, 707 for the second.

B15 was tested, and the “MFI at 0.004 µg/ml” value was 776.

Going from B13 to B14, the “MFI at 0.016 µg/ml” value falls from 1790 to 1500.

In the case of B15, the “MFI at 0.016 µg/ml” value is reported as 2110.

First: B13
Second: B14
The “MFI at 0.063 µg/ml” value of the first is higher: 4850 for the first, 4830 for the second.

With B15 the “MFI at 0.063 µg/ml” value was 5350.

Compared with B13, B14 is higher in “MFI at 0.25 µg/ml” value: 7300 for the first, 7560 for the second.

For B15, the “MFI at 0.25 µg/ml” value was 7400.

Compared with B13, B14 is higher in “MFI at 1 µg/ml” value: 7420 for the first, 7780 for the second.

For B15, the “MFI at 1 µg/ml” value was 7580.
